# Literature values as cited in patent US7708978B2, “Targeted hydrophilic polymer, binders with interferon and medical composite comprising above binders” (Beijing Jiankai Technology Co., Ltd., priority 2002, dated 2010).
# Conditions: in vivo
substance,measurement,value
interferon α,circulation half-life,4 to 8 h
